Series [1] deals with MYC monomer (bHLHZ, Example 2) (UniProt P01106 SEQ:1-82). Kind of series: EMSA; negative control, 4 uM protein, 1 uM DNA. As to conditions: protein: synthetic; tags: chemically synthesized by automated flow peptide synthesis. The procedure:
(§1) Biophysical characterization confirmed the folding and DNA-binding activity of the four covalent protein dimers 3, 4, 5, and 6. The dimers were first analyzed by sodium dodecyl sulfate polyacrylamide gel electrophoresis (SDS-PAGE). […] Next an electrophoretic mobility shift assay (EMSA) was performed to determine the dimers' DNA binding activity. At a DNA concentration of 1 μM and protein concentration of 2 μM, all dimers formed complexes with the E-Box DNA, as observed by the shift retardation on the gel.
(§2) The E-Box DNA probe (2 μM in binding buffer) was heated to 95° C. for 5 minutes and then let cool down to room temperature over 15 minutes for double-strand annealing. Protein dimer (4 μM in binding buffer: MES 10 mM, KCl 150 mM, MgCl₂ 1 mM, TCEP 1 mM, glycerol 10%, pH=6.5) was added to the DNA (final concentrations: 2 μM protein and 1 μM DNA) and the mixture was incubated for 1 h at room temperature. During the incubation, a 10% polyacrylamide gel was prerun (1 h, 4° C., 100 V) in 1× TBE buffer. After that time, DNA protein mixture (20 μL) was mixed with 6× DNA Loading Dye (4 μL)) and loaded on the gel, which was run at 75 V, for 90 min at 4° C. The gel was washed with water for 20 seconds and then stained with 0.02% ethidium bromide in 1xTBE buffer for 15 min at room temperature. Bands were visualized on a Biorad Gel imager.

The target of series [2] is Max-Max 14 (S-aryl linked covalent dimer) (UniProt P61244;P61244 SEQ:1-80,SEQ:1-80). Kind of series: BLI. The conditions noted are these: protein: synthetic; tags: chemically synthesized; C-terminal cysteines crosslinked by dithiobenzene; chain copies: 2 stated.
Series [3] concerns the target Omomyc analog 12 (C-terminal Cys), non-covalent homodimer (UniProt P01106 SEQ:1-90). Kind of series: EMSA; Omomyc+Omomyc. The conditions noted are these: protein: synthetic; tags: chemically synthesized; C-terminal cysteine added; chain copies: 2 stated. The source says:
(§3) The three synthetic analogs 10, 11, and 12 can form non-covalent dimers and bind to the target E-box DNA (5′-[…]-3′). […] However, it is not possible to determine which dimeric species form in a solution containing two different monomers. For instance, upon mixing Max (11) and Omomyc (12), three different dimers (Max/Max, Omomyc/Omomyc and Max/Omomyc) can form and potentially bind to DNA (FIG. 18). To assess the activity of these protein complexes in a reliable manner, access to well-defined covalent protein dimers is critical.
Background: A gel shift assay detects complexes by their altered migration in electrophoresis.

Series [4] deals with Myc-Max 16 (S-aryl linked covalent dimer) (UniProt P01106;P61244 SEQ:1-82,SEQ:1-80). The series is described as follows: EMSA. The conditions noted are these: protein: synthetic; tags: chemically synthesized; C-terminal cysteines crosslinked by dithiobenzene.
In series [5] the target is Omomyc-Max 17 (S-aryl linked covalent dimer) (UniProt P01106;P61244 SEQ:1-90,SEQ:1-80). The series is described as follows: EMSA. The conditions noted are these: protein: synthetic; tags: chemically synthesized; C-terminal cysteines crosslinked by dithiobenzene.
The target of series [6] is Myc analog 10 (C-terminal Cys) (UniProt P01106 SEQ:1-82). The series is described as follows: EMSA; Myc alone cannot homodimerize. As to conditions: protein: synthetic; tags: chemically synthesized; C-terminal cysteine added.
Source text: as §3

Series [7] deals with Max analog 11 (C-terminal Cys), non-covalent homodimer (UniProt P61244 SEQ:1-80). Kind of series: EMSA; Max+Max. As to conditions: protein: synthetic; tags: chemically synthesized; C-terminal cysteine added; chain copies: 2 stated.
Source text: as §3

Series [8] concerns the target Myc-Myc 13 (S-aryl linked covalent dimer) (UniProt P01106;P01106 SEQ:1-82,SEQ:1-82). Kind of series: EMSA; negative control. The conditions noted are these: protein: synthetic; tags: chemically synthesized; C-terminal cysteines crosslinked by dithiobenzene; chain copies: 2 stated.
Series [9] addresses Omomyc-MAX covalent heterodimer 6 (lysine-linked) (UniProt P01106;P61244 SEQ:1-90,SEQ:1-80). Kind of series: EMSA; 2 uM protein, 1 uM DNA; MES 10 mM, KCl 150 mM, MgCl2 1 mM, pH 6.5, RT. The conditions noted are these: protein: synthetic; tags: chemically synthesized; C-termini linked via Lys-betaAla-Lys linker; Boc-Gly coupled as last residue of MAX during synthesis. The procedure:
as §1, §2

Series [10] concerns the target Omomyc-Omomyc covalent homodimer 4 (lysine-linked) (UniProt P01106;P01106 SEQ:1-90,SEQ:1-90). The description is as above. As to conditions: protein: synthetic; tags: chemically synthesized; C-termini linked via Lys-betaAla-Lys linker; chain copies: 2 stated. As for the experimental part:
as §1, §2

Series [11] has as its target MYC-MAX covalent heterodimer 5 (lysine-linked) (UniProt P01106;P61244 SEQ:1-82,SEQ:1-80). The series is described as above. As to conditions: protein: synthetic; tags: chemically synthesized; C-termini linked via Lys-betaAla-Lys linker; Boc-Gly coupled as last residue of MAX during synthesis. As for the experimental part:
as §1, §2

B1: E-box DNA probe (22 bp) (dsDNA)
DNA 1: CCGGCTGACACGTGGTATTAAT
DNA 2: ATTAATACCACGTGTCAGCCGG
As to B1, the binding result in [1] is recorded as “no binding”; in series [3] it was “binds”; in [4], “binds”; in series [5], “binds”; in series [6], “no binding”; in [7] it was “binds”. The binding result in series [8] was “no binding”; in series [9], “binds”; in series [10], “binds”; in [11], “binds”. Further, in series [2], the affinity, expressed as Kd, was 50 nM.

The values above are taken from patent publication US20240336649, “SYNTHESIS OF COVALENT PROTEIN DIMERS THAT CAN INHIBIT MYC-DRIVEN TRANSCRIPTION” (MASSACHUSETTS INSTITUTE OF TECHNOLOGY, published 2024).
